What all share (type): biochemical
For series [1], the system named is gelatin. The series is described as follows: Degree of hydrolysis (DH) assay, gelatin.
Series [2] concerns sodium-caseinate. The series is described as follows: Degree of hydrolysis (DH) assay, casein. Conditions: vs 3 LAPUs FLAVOURZYME alone. As for the experimental part:
(§1) The purified aminopeptidase II described in Example 11 was tested in degree of hydrolysis assays using soy, wheat gluten, and casein as substrates according to the following procedure.
(§2) The degree of hydrolysis (DH) assays were performed at 50° C. for 18 hours as a mini-hydrolysis on a 10 ml scale using soy bean meal tablets, wheat gluten meal tablets, and sodium-caseinate at a 2% concentration adjusted to pH 7, if necessary, with no pH adjustment during hydrolysis. The hydrolysates were inactivated at 85° C. for 3 minutes in a waterbath. The enzymes used were FLAVOURZYME™ and aminopeptidase II. The enzymes were dosed as follows. […] Upon hydrolysis, p-nitroanilide is liberated turning the solution yellow which is monitored 405 nm.
(§3) The degree of hydrolysis (DH), as defined as described by Adler-Nissen (1986, Enzymic Hydrolysis of Food Proteins, Elsevier Applied Science Publishers), was determined by reaction of the supernatant with OPA (ortho-phtaldialdehyde, Sigma Chemical Co., St. Louis, Mo.) according to the following procedure The hydrolysate was diluted 100-fold into distilled water. […] The solution was then shaken well and after 2 minutes exactly, the absorbance at 340 nm was measured and compared to the absorbance of a 0.95 mM L-serine (distilled water) solution after subtraction of the blank value (water reacted with OPA reagent). […]

A short description of series [3]: Kinetic parameters (Lineweaver-Burke plot) at pH 7.5. To be noted: for kcat: average molecular weight of 97 kDa used. How it is done: The kinetic parameters for various aminopeptidase II substrates was determined using the following protocol. Purified aminopeptidase II with an A280 of 0.581 was used. Each substrate was dissolved in DMSO to a concentration of 100 mg/ml and then diluted 50 fold in 50 mM sodium phosphate pH7.5 buffer to 2 mg/ml. The substrates included Leu-pNA, Glu-pNA (Bachem, Torrance, Calif.), and Ala-pNA. In a 96 well microtiter plate, 10 μl of purified aminopeptidase II was incubated with each substrate as follows except 50 µl of purified aminopeptidase II was incubated with Glu-pNA, and the absorbance at 405 nm was measured for 4 minutes:
1. 200 μl of 2 mg/ml substrate+0 μl of 50 mM sodium phosphate buffer pH 7.5
2. 100 μl of 2 mg/ml substrate+100 μl of 50 mM sodium phosphate buffer pH 7.5
3. 50 μl of 2 mg/ml substrate+150 μl of 50 mM sodium phosphate buffer pH 7.5
4. 25 μl of 2 mg/ml substrate+175 μl of 50 mM sodium phosphate buffer pH 7.5

A short description of series [4]: Kinetic parameters of aminopeptidase II for p-nitroanilides at pH 7.0 and 25° C. Conditions: pH 7.0, 25° C. As for the experimental part: The purified aminopeptidase II described in Example 11 was used in the following characterization.
Kinetic parameters of the aminopeptidase II were determined for several p-nitroanilides (pNA) including Leu-pNA, Gly-pNA, Ala-pNA, and Pro-pNA (Sigma Chemical Co., St. Louis, Mo., or Bachem, Torrance, Calif.). Stock solutions of 100 mg of each p-nitroanilide per ml of dimethylsulfoxide were diluted with 50 mM potassium phosphate pH 7.0 buffer to concentrations ranging from 0.0064 to 9.56 mM. […] The reaction of the aminopeptidase II with the p-nitroanilide was initiated when a 100 μl aliquot of the enzyme solution in 50 mM potassium phosphate pH 7.0 was added to 100 μl of a substrate solution in a microtiter plate well and monitored at 405 nm and 25° C. using a THERMOmax Microplate Reader (Molecular Devices Corp., Sunnyvale, Calif.).

Series [5] has as its system wheat gluten meal tablets. The series is described as follows: Degree of hydrolysis (DH) assay, gluten. Conditions: 50° C., 18 hours. As for the experimental part:
as §1, §2, §3

[6] abbreviates: 2 LAPUs aminopeptidase II added to 3 LAPUs FLAVOURZYME
The mark [7] stands for this setting: substrate Ala-pNA, enzyme of Example 11.
Setting [8] is: substrate Gly-pNA, enzyme of Example 11.
Setting [9] is: substrate Pro-pNA, enzyme of Example 11.

B1: aminopeptidase II: Recombinant Aspergillus oryzae 1568 (ATCC 20386) aminopeptidase II, 496 amino acids (SEQ ID NO:2), produced in Aspergillus oryzae or Fusarium (protein)
chain: MRSLLWASLLSGVLAGRALVSPDEFPEDIQLEDLLEGSQQLEDFAYAYPERNRVFGGKAHDDTVNYLYEELKKTGYYDVYKQPQVHLWSNADQTLKVGDEEIEAKTMTYSPSVEVTADVAVVKNLGCSEADYPSDVEGKVALIKRGECPFGDKSVLAAKAKAAASIVYNNVAGSMAGTLGAAQSDKGPYSAIVGISLEDGQKLIKLAEAGSVSVDLWVDSKQENRTTYNVVAQTKGGDPNNVVALGGHTDSVEAGPGINDDGSGIISNLVIAKALTQYSVKNAVRFLFWTAEEFGLLGSNYYVSHLNATELNKIRLYLNFDMIASPNYALMIYDGDGSAFNQSGPAGSAQIEKLFEDYYDSIDLPHIPTQFDGRSDYEAFILNGIPSGGLFTGAEGIMSEENASRWGGQAGVAYDANYHAAGDNMTNLNHEAFLINSKATAFAVATYANDLSSIPKRNTTSSLHRRARTMRPFGKRAPKTHAHVSGSGCWHSQVEA
Consider B1, for which the “increase of absolute DH” value in series [1] (2 LAPUs added to 3 LAPUs FLAVOURZYME) is on record as 4.9%; in series [1] (5 LAPUs added to 3 LAPUs FLAVOURZYME), 5.3%; in series [2] (1 LAPU aminopeptidase II added to 3 LAPUs FLAVOURZYME), 7%; in series [2] (setting [6]) it was 9%; in series [5] (setting [6]) it was 6%; in series [5] (5 LAPUs aminopeptidase II added to 3 LAPUs FLAVOURZYME), 9%. The Km (commonly the substrate concentration at which the rate is half of its maximum) came to 1.49 mM in series [3] (substrate Ala-pNA, enzyme of Example 15); 1.17 mM in series [3] (substrate Glu-pNA, enzyme of Example 15); 5.78 mM in series [3] (substrate Leu-pNA, enzyme of Example 15 (produced by Fusarium)); 11 mM in series [4] (setting [7]); 0.3 mM in series [4] (setting [8]); 7 mM in series [4] (substrate Leu-pNA, enzyme of Example 11 (produced in Aspergillus)). Also, the Km in series [4] (setting [9]) came out at 2 mM. Moreover, the kcat (commonly the maximal rate divided by the concentration of active sites) in series [3] (substrate Glu-pNA) is 8.217 min⁻¹; in series [3] (substrate Leu-pNA), 230.9 min⁻¹. In addition, the Vmax in series [4] (setting [7]) worked out at 1200 relative units; in series [4] (setting [8]), 1670 relative units; in series [4] (substrate Leu-pNA, enzyme of Example 11) it was 6400 relative units; in series [4] (setting [9]), 120 relative units.

Values taken from patent publication US6800467B1, “Polypeptides having aminopeptidase activity and nucleic acids encoding same” (Novozymes Biotech, Inc., priority 1997, dated 2004).
